Key:
O=Cc1ccc(CO)o1 = test system: T1, O=Cc1ccc(CO)o1; experiment: purified protein; type: biochemical, Methylovorus sp. MP688; settings: 50 mM phosphate pH 8.0, 25 °C, O2 as electron acceptor
T1 construct: full-length, N-terminal His6x-SUMO fusion kept, recombinant from E. coli (pET SUMO / pBAD SUMO), FAD-containing

purified protein = substrate: O=Cc1ccc(CO)o1; experiment: purified protein; settings: 50 mM phosphate pH 8.0, 25 °C, O2 as electron acceptor

Row | Molecule | Km (O=Cc1ccc(CO)o1) [µM] | kcat (O=Cc1ccc(CO)o1) [s⁻¹] | kcat/Km (O=Cc1ccc(CO)o1) [M⁻¹ s⁻¹] | Km (purified protein) [µM] | kcat (purified protein) [s⁻¹] | kcat/Km (purified protein) [M⁻¹ s⁻¹]
1 | HMFO (HMF oxidase) (Methylovorus sp. MP688; A419Y/A435E/G356H/H74Y/I73V/T414K/V367L) | 630 | 11.8 | 18700 |  |  | 
2 | HMFO (HMF oxidase) (Methylovorus sp. MP688) (protein) MTDTIFDYVIVGGGTAGSVLANRLSARPENRVLLIEAGIDTPENNIPPEIHDGLRPWLPRLSGDKFFWPNLTIHRAAEHPGITREPQFYEQGRLLGGGSSVNMVVSNRGLPRDYDEWQALGADGWDWQGVLPYFIKTERDADYGDDPLHGNAGPIPIGRVDSRHWSDFTVAATQALEAAGLPNIHDQNARFDDGYFPPAFTLKGEERFSAARGYLDASVRVRPNLSLWTESRVLKLLTTGNAITGVSVLRGRETLQVQAREVILTAGALQSPAILLRTGIGPAADLHALGIPVLADRPGVGRNLWEHSSIGVVAPLTEQARADASTGKAGSRHQLGIRASSGVDPATPSDLFLHIGADPVSGLASAVFWVNKPSSTGWLKLKDADPFSYPDVDFNLLSDPRDLGRLKAGLRLITHYFAAPSLAKYGLALALSRFAAPQPGGPLLNDLLQDEAALERYLRTNVGGVWHASGTARIGRADDSQAVVDKAGRVYGVTGLRVADASIMPTVPTANTNLPTLMLAEKIADAILTQA |  |  |  | 1520 | 13.7 | 9030
